Data published in patent publication US11479601B2, “Antibodies specific to Sonic Hedgehog and method of use thereof” (The Regents of the University of California, priority 2016, dated 2022).

Legend:
[1] = test system: A549 cells; test: Viability of A549 cells treated with Shh antibodies ± GLI inhibitor 249C; assay type: cell-based, human; conditions: for Cell viability of A549 cells: 249C at 40 nM where added
Description: The effect of the C-terminal Shh antibodies from clones 2G4 and 2D9 on the viability of A549 cells was determined. A549 cells were exposed to increasing concentrations of the C-terminal Shh antibodies (2G4, 2D9), or antibodies against the N-terminal portion of Shh protein (6D3, 2E1), and the effective dose (ED50) was determined (assay 1: FIG. 16A; assay 2: FIG. 16B). […] Possibly due to the fact that very few cells express full-length Shh on the cell surface, the cytotoxic effect of the C-terminal Shh antibodies was not as potent as the cytotoxic effect of the N-terminal antibodies.
Next, the cytotoxicity of the C-terminal Shh antibodies was tested when the antibodies were used in conjunction with a small-molecule inhibitor of GLI zinc-finger transcription factor signaling, 249C (4-(5-chlorofuran-2-yl)-1,3-bis(2,4-difluorophenyl)-5-methyl-N-((4-methylmorpholin-2-yl)methyl)-4,5-dihydro-1H-pyrazole-5-carboxamide; Compound 135 above). A549 cells were exposed to varying concentrations of the C-terminal antibodies (2G4, 2D9) or the N-terminal antibodies (6D3, 2E1), in the presence or absence of a very low dose (40 nM) of 249C. (The IC50 of 249C in A549 cells is ˜70 nM.)

[2] = target: T1, Shh in A549 cells (Homo sapiens, UniProt Q15465); test: Flow cytometry of purified antibodies on A549 cells (vector control or pCMV-Shh); assay type: binding
T1 construct: 1) 293T (endogenous Shh), 2) 293T (bearing exogenously transfected Shh) and 3) A549 (Shh-expressing); endogenous in cells; host or cells: 293T and A549 (endogenous); also 293T and A549 transiently transfected with pCMV-Shh (Origene)
Description: A549, 293T or 293T (+pCMV Shh) cells were labeled with Sonic Hedgehog (Shh) antibody (Abcam 53281, 1:100) or therapeutic test antibodies (1:100) for 1 hour at RT post serum blocking. Following two PBS washes, a FITC-conjugated secondary antibody (Abcam 97029, 1:100) or an Alexa-Fluor 647 (Invitrogen, 1:1000) was used to label cells. Samples were screened by flow cytometry using an Accuri™ C6 machine (BD Biosciences). For fluorescence activated cell sorting, samples were sorted using an S3e™ Cell Sorter (Bio-Rad) and the Shh+ population was collected. For all experiments, cells processed without primary antibody served as a negative control. Experiments were performed in duplicates or triplicates.
For the purpose of selecting the best C-term Shh antibodies from over 50 hybridoma clones, two sets of screening assays were designed. First, the same Shh C-term peptides (AA 247-264 and 448-462, KLH-free version) used to mount an immune response in mice was employed in an ELISA-based assay with supernatants from antibody-producing hybridoma clonal cells. […] To confirm specific recognition, A549 (+vector control) cells and A549 cells transfected with exogenous Shh were labeled with 2G4 and 2D9 and assessed via flow cytometry. […] Finally, the Kd values of both antibodies with recombinant full-length Shh were calculated and nanomolar binding affinities were observed (FIG. 48C).

[3] = test system: A549-derived NSCLC xenografts; test: Antitumor efficacy in NSCLC A549 xenograft model (8 mg/kg); assay type: in vivo, mice; conditions: 3 times a week for 3 weeks, versus control IgG
Description: 7-week old female nude mice (Jackson Laboratories) were injected with 10×10^6 NSCLC A549 cells in 50% matrigel in the flank region. […] 8 mg/kg therapeutic or control antibodies were administered three times a week for approximately 3 weeks. Tumor volumes were calculated using the formula (V=L×W^2) with recorded caliper measurements. At the end point, tumors were harvested, weighed and imaged. All animal procedures were performed under IACUC-approved protocols and guidelines.

B1: 2G4: purified mouse monoclonal C-terminal Shh antibody from hybridoma sub-clone 2G4 of clone 1C11, IgG1 kappa (antibody, V domains shown)
VH: EVKLVESGGGLVKPGGSLKLSCAASGFTFSSYTMSWVRQTPAKRLEWVATISSGGGNTYYPDSVKGRFTISRDNARNTLYLQMSSLRSEDTAMYYCARDYRSLFAYWGQGTLVTVSA
VL: QIVLTQSPAIMSASPGEKVTITCSASSSVSYMHWFQQKPGTSPKLWIYSTSNLASGVPARFSGSGSGTSYSLTISRMEAEDAATYYCQQRSSYPFTFGSGTKLEIK
B1 was tested, and the “Cell viability of A549 cells” value ([1]; Ab conc. 32 ng/mL) was 99%, the “Cell viability of A549 cells” value ([1]; Ab conc. 64 ng/mL) was 95% and the “Cell viability of A549 cells” value ([1]; Ab conc. 128 ng/mL) was 91%. For the same molecule, the “synergy with a GLI inhibitor in reducing viability of non-small cell lung cancer cells” value ([1]; with 249C at 40 nM) was “act synergistically”, the “endogenous Shh recognized (flow cytometry)” value ([2]; A549 (+vector control)) was 0.5% and the “exogenous Shh recognized (flow cytometry)” value ([2]; A549 cells transfected with exogenous Shh) was 6%. For the same molecule, the tumor volume [3] was “significant reduction in tumor volume” and the “tumor weight of harvested tumors” value [3] was “decrease in tumor weight”.
